Experiment: soluble on expression in E. coli; label from the status in PepcDB or PDB records
With “MGSDKIHHHHHHCSTDFLDRNPLDKPSNEAFWRTEKDAMAAATGCYNGWFSMDEVIYADCASDNAYNPFTWEGWAVQAAGTATPTDPGYSYMGYGNMVRYNNFLENIHRPEMNEDLRKRLIAEVRFLRAWDYFQKVAHYGDVPLVTSVLEIKNANLPRTEKAKVVEFILKELKEIAPQLPESYSGSDVGRITRGAALTLKARLELFEHQYDDCMATCSEVMGLGYELFLDYKGLFKIANENNSEVILDVQYVESLYGNWVLGVLPPASVGGWCSINPTQSLVDAFECEDGKTIEESEVYDPKEPYLHRDPRLAVTVLAPGNLYEGKRYDPIDVKDPNGDYYAPYGRSKTGYLVRKYVDDLSDYADMWDCGMNAIVMRYAEVLLMYAECKIELNQIDNSVYDILDDIRTRAKMPVVDRTRYTGQEKLRELLRRERRVELAMEGLRWFDICRWKIGEQVLNGKVYGCLLGTVDPVTGALSLTNERIFVENRKFDPAKHYLWPIPQTVIDATPAIVQNPHY” the “soluble on expression in E. coli” value was “not soluble”. In the case of “IDPFTADAGHTEFTDEVYQNESRYPGGDWKPAEDTYTDANGDKAASPSELTCPPGWEWEDDAWSYDINRAVDEKGWEYGITIPPDHKPKSWVAAEKMYHTHRRRRLVRKRKKDLTQTASSTAR”, the “soluble on expression in E. coli” value is reported as “soluble”. In the case of “MAHHHHHHMKENVLINENIKAHEEKGNLNDDKRDEHMISLRGLNIYYKDKLENLNTIKNIDNNKKFIKLVLEDVDLKPEEIMKHILHLLKEKTSLHTILEINKQKYKIKYKEIIPDDHILFTQNIQNITNCKYALLGILKVSKYTKKNTFNEKLLQSWQDVPMEF”, the “soluble on expression in E. coli” value is reported as “not soluble”. For “MSLAVIKQDDLIQSVADALQFISYYHPVDFIQAMHEAYLREESPAARDSMAQILINSRMCATGHRPICQDTGIVTVFVRVGMDVRWDGATMSVDDMINEGVRRAYNLPENVLRASILADPAGARKNTKDNTPAVIHYSIVPGDKVEVDVAAKGGGSENKSKMAMLNPSDSIVDWVLKTVPTMGAGWCPPGMLGIGIGGTAEKAAVMAKEVLMDPIDIHELKARGPQNRIEELRLELFEKVNQLGIGAQGLGGLTTVLDVKIMDYPTHAASLPVCMIPNCAATRHAHFVLDGSGPAELEAPSLDAYPEIVWEAGPSARRVDLDKITPEEVQSWKPGETLLLNGKMLTGRDAAHKRMVDMLNKGETLPVDLKGRFIYYVGPVDPVGDEVVGPAGPTTATRMDKFTRQILEQTGLLGMIGKSERGPIAIEAIKDNKAVYLMAVGGAAYLVAQAIKKSKVLAFAELGMEAIYEFEVKDMPVTVAVDTNGESVHITGPAVWQKKIAESLAVEVKEGGSHHHHHH”, the “soluble on expression in E. coli” value was “soluble”. In the case of “METKQKERIRRLMELLKKTDRIHLKDAARMLEVSVMTIRRDLSQDDDPLPLTLLGGYIVMVNKPASSTNMPLPAKKTHHRDDLPVAILAAGLVRENDLVFFDNGPEMPLVISMIPDDITFTGICYSHRVFIALNEKPNATAILCGGTYRAKSDAFYDANNPSALDSLNPRKVFISASGVHEHFGVSWFNPDDLAAKRKAMERGLRKILLARHALFDEVAPASIGPLSAFDVLISDRPLPTDYAVHCRNGSVKVITPDSESE”, the “soluble on expression in E. coli” value is reported as “not soluble”. In the case of “MDGSVVRHEERLNVGKERVESGRMRIRKHVVHDTETVEVPVEREEIHVERVPLDEKVAADDAKLSEGTQDIVTHEERPVVNKETVGVEKIKIGKEAVQDTETVSGKVAKEQIDIDNAKHTKLEHHHHHH”, the “soluble on expression in E. coli” value is reported as “not soluble”. For “MSAPNPKAFPLADAALTQQILDVVQQAANLRQLKKGANEATKTLNRGISEFIIMAADCEPIEILLHLPLLCEDKNVPYVFVPSRVALGRACGVSRPVIAASITTNDASAIKTQIYAVKDKIETLLI”, the “soluble on expression in E. coli” value was “soluble”. In the case of “MQTVIGTTNGRPGTTYYQRGRMHRHQPGNRQQKEKKAAAGRNRNDFLTGRILPVTPDYCMEIRAGEKINLTTRENFDFLYRSALRYSALVGLRLPFRPTGKSPRMNIVKLYRAMDTILPEHVNLEEENGRLYFCLYRFHEWPEYKLFWIPLEFTERLPEKLGKIALEFIRQLARHHGIPKSTDTSYHEMAHDYLEDYRLYDEEATAGEIRRKAALARLYEKGKAHRILKRMDNPKGFLADLEGEIRKYHTKKNNERALLELLTEGTAYISYGSPSIMQYSYDWAYEKAADFRPVGLDTQIMVTWSVKDAMNDEMESYFNSDYQESYVITPVTTFHLTPDTEKPFSMDDFPERFSHWLERFTKLITNNF”, the “soluble on expression in E. coli” value is reported as “not soluble”. For “MAETKRMTVSQALVEFLGHQWTVDGDIRERTIPGMFGIFGHGNVAGIGQALKQYNVEQPELMPYYQARNEQAMVHQSVGYARMHRRRGTYASAASVGPGATNLLTGAALATTNRLPALLLPSDTFATRVADPVLQQLEQPWDIGLTVNDAFRPVSKFFDRVQRPEQLFSIALAAMRVLTDPAETGAVTIALPEDVQAEMLDVPVEFLQDREWHIRRPR”, the “soluble on expression in E. coli” value was “not soluble”. For “MGSDKIHHHHHHMNGNIIVAHGMRHGRQNQALEAFISELVKDDIHHYDIAFLESEHQDLETVMTTLIQSGVDHFKIVPLLIFSAMHYLKDIPNIVHEMKRRYPDIKVEVSEPLGTHPLMRRLIEQRICDALAGDEQQVGVMVVAHGNINGNFTKAHEELQICAQHLQINKPTYARTLYGEISFTHDLESISKRYQKLIVVPLFLYDGRLVNKVKQQMNDMVINTDIHFTPSINFDPILKQIINDRLESLMIPMKI”, the “soluble on expression in E. coli” value was “not soluble”. For “MHHHHHHAMNHETFLKRAVTLACEGVNAGIGGPFGAVIVKDGAIIAEGQNNVTTSNDPTAHAEVTAIRKACKVLGAYQLDDCILYTSCEPCPMCLGAIYWARPKAVFYAAEHTDAAEAGFDDSFIYKEIDKPAEERTIPFYQVTLTEHLSPFQAWRNFANKKEY”, the “soluble on expression in E. coli” value was “soluble”. In the case of “MTIQPPSSSSATEFCQPDESTFLVGFNRVRRYGTTQSQSSPVTPCSYTIYQVQTDDTLERIALKHNCSVSSLVRANKLWSPSALFMKQFIRIPIFNSQQPNLKPSLQETQCKIVPATTERVDSSREEKSMKDILQRIDRNIKSFRKCDNPSSSAYDHI”, the “soluble on expression in E. coli” value is reported as “not soluble”. With “MGSDKIHHHHHHMIREIRITSFEGLISEMESLGKELWFRGVTNKNYSLIPGSVRFDLNGWKEVSAVLDFMASYQNHHDYIESNWELYSLMQHYGFPTRLLDWSTSVIVALYFALDGDADVDDAGSAIDRVVWGMTTGMLNNLNFLNRRVIPTAIGKATTGEKYLPSPLRKKEGDDFEFEKNPLAVKMPFTNKRVSAQKGCFTIHGSNPKGIEEIMEENGLGSELIKFVFDEEAAMAIRKTLYKLDINEDDIYQDLNSLSKRIVLVNPNWTLLVENFQILQVTDHH” the “soluble on expression in E. coli” value was “not soluble”. In the case of “SPPIGNQLGALVHQRTVITEEFKVPDKMVGFIIGRGGEQISRIQAESGCKIQIASESSGIPERPCVLTGTPESIEQAKRLLGQIVDRCRNGPGFHNDIDSNSTIQEILIPASKVGLVIGRGGETIKQLQERTGVKMVMIQDGPLPTGADKPLRITGDAFKVQQAREMVLEIIREKDQADFRGVRGDFNSRMGGGSIEVSVPRFAVGIVIGRNGEMIKKIQNDAGVRIQFKPDDGISPEYYRQQVAFYGQTLGQAQAHSQEQ”, the “soluble on expression in E. coli” value is reported as “soluble”. In the case of “APSASFERRQGSVNPYIGRSPLVIKSYAEKLEETIAYFEAQGDELNAARTRTVQGIPTFAWISDSATIDTIQPLIADAVAHQEASGEQVLVQLVIYNLPDRDCAAKASDGEFHLDDDGANKYRAYVDRIVAELSTADADKLHFSIVLEPDSLGNMVTNMHVPKCQGAATAYKEGIAYTIASLQKPNIDLYIDAAHGGWLGWNDNLRPSAEIFKETLDLARQITPNATVRGLAINVSNYNPYKTRAREDYTEWNNAYDEWNYVKTLTPHLQAVGFPAQFIVDQGRSGREGIRTEWGQWCNIRNAGFGIRPTTDQAIVDSANVDAIVWVKPGGESDGTSDVNAVRFDENCRSPASHVPAPEAGEWFNEFVVNLVINANPPLEPTYAAAALEHHHHHH”, the “soluble on expression in E. coli” value is reported as “soluble”. With “SMPDEVPLDEQCERLPYDASKWEFARERLKLGKSLGRGAFGKVVQASAFGIKKSPTCRTVAVKMLKEGATASEYKALMTELKILTHIGHHLNVVNLLGACTKQGGPLMVIVEYCKYGNLSNYLKSKRDLFFLNKDAALHMEPKKEKMEPGLEQGKKPRLDSVTSSESFASSGFQEDKSLSDVEEEEDSDGFYKEPITMEDLISYSFQVARGMEFLSSRKCIHRDLAARNILLSENNVVKICDFGLARDIYKNPDYVRKGDTRLPLKWMAPESIFDKIYSTKSDVWSYGVLLWEIFSLGGSPYPGVQMDEDFCSRLREGMRMRAPEYSTPEIYQIMLDCWHRDPKERPRFAELVEKLGDLL” the “soluble on expression in E. coli” value was “soluble”.

Source: the DeepSol protein solubility set
